Data as given in patent US20020119572.

Biological target: T1, gold nanoparticle linked S18 peptide
T1 chain: CGGKETAAAKFERQHMDS

B1: S-protein of Ribonuclease S (protein)
chain: SSSNYCNQMMKSRNLTKDRCKPVNTFVHESLADVQAVCSQKNVACKNGQTNCYQSYSTMSITDCRETGSSKYPNCAYKTTQANKHIIVACEGNPYVPVHFDASV
RF power level at 50% RNase S activity (poly C hydrolysis): -4 dBm at the 50% activity | RNase S activity (digested polyC, absorption at 280 nm) with RFMF on and off: The activity with the RFMF on was less than with the RFMF off
